Laboratory results published in the DeepSol protein solubility set.

Experiment: soluble on expression in E. coli; label from the status in PepcDB or PDB records

Sequence | soluble on expression in E. coli
MGSDKIHHHHHHMKNLLVVLLSLVSVLSFSVSLNDVLQTALASSTDYQIAQISLESATMDYEKAKLEATNKRSELSAELSYYNNLQSYRNSLKSAYQDVLGRIFNLLTADLSYEIAQLNFENAQEDYKTSQELFKKNLISENDLKDSELTLEEASNNLLSAQKDLEEAQKDYEEIFSVEVSEIELPLIDYQNLVGEDEYLDNLSSVKIAELNMKIAEYDLNNLSASASKYEQKKAELNYKKSKMNYDEALKEAKDSYKSTLDSLEIAFLNLKVLKEKIELNENILKDYQERYEKGLISKKELNTQKINLLNIKKNYLNSLRSYYISIVNLLIDAGKEVSF | not soluble
MSLENYWVDERTLVVSGDFFGVSTGLLGGWKRVRHAFNHTVSEEFHSMEPAEYLRKVARGYGLKSYFGLLTSVPIEKLSVKGCGEVTVFATAGVMNPNERVGTINIIAVFECRMSRAAMLNAIITATEAKTKALLEEGHNFTGTNTDAVVVLCTQKGGYHRYCGPASEVGQKLWRCAGEAVKDSLARWEGHHHHHH | not soluble
MTDRYTIHSQLEHLQSKYIGTGHADTTKWEWLVNQHRDSYCSYMGHFDLLNYFAIAENESKARVRFNLMEKMLQPCGPPADKPEEN | soluble
MEKYQVKFMPDQQVIEVEKGTSLLKAASQAGIFIKSSCGGKGTCGACKVTVISGEAKSERTGNLSPEQLSRGVRLSCHTFVEGDLTVEVPPESRLQAHQVLLENANAALLTETSKDLLTYYGYHPLARKVNIRCSEPTLTDNAGDWARLSLELKRVLQSDKPLTIPLSVLQTLPETLRQAHWDLSVILTDLELGYTVLHVEPANDRPCYGLAIDVGTTTVVVYLVDLDSGEIVDKQGSYNKQAQFGDDVISRIVYAVDSKENMAEIQKAVVDTVNALIDGILERQSLTSQDIASAVIAGNTTMSQLFLGINPRYIRLEPYIPTVNSTPAVSAREIGLRLLPEALIHTYPSVASYVGGDIVSGALATDMANSDEIILFIDIGTNGEIVLGNKDWLVSCACSAGPCFEGGGILFGMRAMPGAIERVDIDPESLDVKLKVVGKIAPVGICGSGLVDCLAKLRKAGIIDRAGNFQLEHPSQSARIRATEDDKEFVLAWAHQAGGDKDIVISENDVKNLIRAKGAIYAGIRSLLQTVALEIDMIERIVIGGGFGNYLNVHDSVEIGLLPDLPQEKFEFIGNSSVKGARLALLSQKAWNEAADLARKMTYIELSIGTTFMDEFVSALFLPHTDLSLFPSVEGTFLEHHHHHH | soluble
MEVYMKKLINDKNNIVEEVVQGMIKAFPNKVSRVENEPIIIRKNKKVNKVALISGGGSGHEPAHAGYVGYGMLDAAVCGEIFTSPGADKVYSAIKAVDAGKGVLLIIKNYSGDVMNFEMAGEMAQAEGITVKQVVVDDDIAVENSTYTVGRRGIAGTIFVHKILGAAAEKGYDLDKLVELGNKVVKNLKTMGMSLKPCTVFTTGKESFEIADDEVEIGLGIHGEPGTHREKMTTANEFTKKLFEKIYAESNVQNGDRFAVLVNGLGETTLIELFIINNHLQDLLKDKRIEVAKTLVGNYMTSLDMGGFSISLLKLDKEMEELLNAEEDTIAFLEHHHHHH | soluble
SSFVGENSGVKMGSEDWEKDEPQCCLEDPAVSPLEPGPSLPAMNFVHTSPKVKNLNPKKFSIHDQDHKVLVLDSGNLIAVPDKNYIRPEIFFALASSLSSASAEKGSPILLGVSKGEFCLYCDKDKGQSHPSLQLKKEKLMKLAAQKESARRPFIFYRAQVGSWNMLESAAHPGWFICTSCNCNEPVGVTDKFENRKHIEFSFQPVCKAEMSPSEVSD | soluble
MTLRSQDPRIAIIGGGIAGATAAVHLGELGLNVVLMEKSAGLVSGPPICHLHAGGNLYREISEQQCIDLLEQSIETVRLYPHTLNVRPTLIAIPQSDPGQPEEILPRLVTIQNAYRKLVEQDAANQVLGAVDNYYRLYQREELERLAQQQQANPPQSDDEWVIPFAQHADLAQLKYPVVLVQEYGWSVFRLAASVDLTLEALPNCQVMLRTELVDATFQDNQWRLTYLDAQGERHTQTVDYLVNACGFETGRVDDMARHHRQRLVEFKAAYVTHWPACHQWWPEVIFHGPRGSEDGMAQLTPYADGTFQLHGMTESITLFADGLVASTPTSAQPQLPLYLQHKIERGWPMSAQQERTVRAIQHMSRFVPSFDNAEFAGKPLFGAQQIPGDDVTLRAADVSFEANQYARLEVVKGSSALRAARQLVAVWQLKPDAGELSIETEHPCSMAFTAQQVEQQAIRLCHARGYPAALAKVYGLLEHHHHHH | soluble
